Results from the RNAGym collection of RNA variant scans (doi:10.7554/elife.90254).

B1: LINE1-mini (parent)
chain: GGCAGAGCUCAACACAGCGUGGCAAAGUGGCUGUGGCUAGACUGCC

Variants of: B1
Assay: self-cleavage, relative activity (ratio to wild type); higher = more cleavage; in vitro, sequencing; the parent is a self-cleaving ribozyme

Variant | self-cleavage
C15U G44A | 0.26
C15U G44C | 0.31
C15U G44U | 0.09
A16C G36C | 0.04
A16C G36A | 0.12
A16C G36U | 0.07
C15A U32G | 0.06
C15A U32A | 0.06
C15A U32C | 0.07
C15U A26U | 0.74
C15U A26G | 0.88
C15U A26C | 1.74
A16C G17U | 0.08
A16C G17A | 0.07
A16C G17C | 0.12
C15G | 0.07
C15U | 1.03
C15U G17A | 0.07
C15U G17C | 0.19
C15U G17U | 0.11
C15G G29C | 0.1
C15G G29U | 0.06
C15G G29A | 0.09
C15U A41G | 0.25

Variant | self-cleavage
C15U A41C | 0.08
C15U A41U | 0.33
C15A G27U | 0.09
C15A G27C | 0.1
C15A G27A | 0.15
C15U U38C | 0.27
C15U U38A | 0.64
C15U U38G | 0.04
A16C G30C | 0.12
A16C G30A | 0.14
A16C G30U | 0.05
C15U G40A | 0.14
C15U G40U | 0.12
C15U G40C | 0.07
C15A C18U | 0.14
C15A C46G | 0.05
C15A C46A | 0.09
C15A C46U | 0.12
C15U C46U | 0.43
C15U C46G | 0.33
C15U C46A | 0.92
C15G A26U | 0.07
C15G A26C | 0.04
C15G A26G | 0.03

Variant | self-cleavage
A16C G35C | 0.06
A16C G35A | 0.06
A16C G35U | 0.03
C15U A39C | 0.18
C15U A39G | 0.11
C15U A39U | 0.72
A16C C23G | 0.08
A16C C23A | 0.12
A16C C23U | 0.45
A16C G21U | 0.07
A16C G21A | 0.14
A16C G21C | 0.22
C15G C46G | 0.03
C15G C46A | 0.11
C15G C46U | 0.06
C15G G33U | 0.36
C15G G33A | 0.03
C15G G33C | 0.25
C15U U20C | 0.32
C15U U20G | 0.49
C15U U20A | 0.92
A16C C18A | 0.06
A16C C18U | 0.09
A16C C18G | 0.04

Variant | self-cleavage
A16C G44U | 0.07
A16C G44C | 0.02
A16C G44A | 0.05
C15G U28G | 0.04
C15G U28C | 0.04
C15G U28A | 0.04
C15U U43G | 0.44
C15U U43C | 0.14
C15U U43A | 0.14
C15U G35U | 0.13
C15U G35A | 0.09
C15U G35C | 0.14
C15A G21C | 0.11
C15A G21U | 0.12
C15A G21A | 0.16
C15U A16G | 0.42
C15U A16U | 0.1
C15U A16C | 0.13
C15A G44U | 0.04
C15A G44A | 0.08
C15A G44C | 0.04
C15A C23G | 0.05
C15A C23U | 0.14
C15A C23A | 0.18

Variant | self-cleavage
A16C G40U | 0.03
A16C G40C | 0.03
A16C G40A | 0.05
A16C G29A | 0.57
A16C G29U | 0.55
A16C G29C | 0.77
C15G G22U | 0.3
C15G G22A | 0.15
C15G G22C | 0.03
C15G G44C | 0.04
C15G G44A | 0.03
C15G G44U | 0.03
C15A G35A | 0.1
C15A G35C | 0.05
C15A G35U | 0.08
C15G A24G | 0.03
C15G A24C | 0.02
C15G A24U | 0.02
C15U U32C | 0.08
C15U U32A | 0.09
C15U U32G | 0.12
C15A G36A | 0.14
C15A G36C | 0.04
C15A G36U | 0.06

Variant | self-cleavage
C15G G35C | 0.13
C15G G35U | 0.03
C15G G35A | 0.04
C15U G21C | 1.81
C15U G21A | 1.23
C15U G21U | 1.46
C15G A39C | 0.02
C15G A39G | 0.03
C15G A39U | 0.04
C15G U43A | 0.02
C15G U43C | 0.03
C15G U43G | 0
A16C A39U | 0.09
A16C A39G | 0.04
A16C A39C | 0.02
C15A U20A | 0.11
C15A U20C | 0.04
C15A U20G | 0.08
C15G A41U | 0.06
C15G A41C | 0.04
C15G A41G | 0.04
C15U C18A | 0.09
C15U C18G | 0.07
C15U C18U | 0.47

Variant | self-cleavage
C15A C37A | 0.08
C15A C37U | 0.1
C15A C37G | 0.04
C15G C37G | 0.02
C15G C37A | 0.06
C15G C37U | 0.04
A16C C45U | 0.07
A16C C45A | 0.07
A16C C45G | 0.06
A16C C46A | 0.1
A16C C46U | 0.08
A16C C46G | 0.09
C15G C45A | 0.02
C15G C45G | 0.08
C15G C45U | 0.05
A16C A26C | 0.04
A16C A26U | 0.05
A16C A26G | 0.02
C15G G36U | 0.04
C15G G36A | 0.06
C15G G36C | 0.03
A16C C31U | 0.03
A16C C31A | 0.08
A16C C31G | 0.03

Variant | self-cleavage
C15U G30C | 0.09
C15U G30U | 0.6
C15U G30A | 0.35
C15A G22A | 0.28
C15A G22U | 0.08
C15A G22C | 0.06
C15A G19A | 0.06
C15A G19U | 0.09
C15A G19C | 0.14
C15G C42U | 0.04
C15G C42A | 0.04
C15G C42G | 0.1
C15G G30U | 0.03
C15G G30A | 0.07
C15G G30C | 0.08
C15G G40A | 0.08
C15G G40U | 0.09
C15G G40C | 0.03
C15U U34C | 0.14
C15U U34G | 0.07
C15U U34A | 0.08
C15A C31G | 0.03
C15A C31A | 0.05
C15A C31U | 0.04

Variant | self-cleavage
A16C A25C | 0.04
A16C A25G | 0.07
A16C A25U | 0.08
C15G C23G | 0.12
C15G C23A | 0.06
C15G C23U | 0.08
A16C C37U | 0.1
A16C C37G | 0.02
A16C C37A | 0.06
A16C C42U | 0.06
A16C C42A | 0.05
A16C C42G | 0.09
C15G U38C | 0.03
C15G U38G | 0.03
C15G U38A | 0.03
C15U G27U | 1.36
C15U G27A | 1.41
C15U G27C | 0.87
A16C G27C | 0.15
A16C G27A | 0.26
A16C G27U | 0.14
C15A G33C | 0.06
C15A G33A | 0.11
C15A G33U | 1.81

Variant | self-cleavage
C15A U34A | 0.59
C15A U34C | 0.06
C15A U34G | 0.05
C15G G21U | 0.07
C15G G21A | 0.08
C15G G21C | 0.17
C15G U20C | 0.03
C15G U20A | 0.09
C15G U20G | 0.03
C15G G19A | 0.07
C15G G19U | 0.03
C15G G19C | 0.13
C15G U34A | 0.52
C15G U34C | 0.03
C15G U34G | 0.02
C15A U38G | 0.07
C15A U38C | 0.07
C15A U38A | 0.05
C15A U43A | 0.07
C15A U43C | 0.04
C15A U43G | 0.07
C15U C45G | 0.2
C15U C45U | 0.79
C15U C45A | 0.21

Variant | self-cleavage
C15G C31G | 0.03
C15G C31U | 0.04
C15G C31A | 0.02
C15U C37U | 0.11
C15U C37G | 0.08
C15U C37A | 0.11
A16C U20A | 0.05
A16C G19U | 0.08
A16C G19A | 0.18
A16C G19C | 0.4
C15G A16C | 0.11
C15G A16U | 0.05
C15G A16G | 0.05
C15G G27C | 0.05
C15G G27A | 0.05
C15G G27U | 0.04
C15A C45G | 0.05
C15A C45U | 0.12
C15A C45A | 0.08
C15G G17U | 0.05
C15G G17A | 0.05
C15G G17C | 0.04
A16C A41C | 0.03
A16C A41G | 0.02

Variant | self-cleavage
A16C A41U | 0.05
C15A U28G | 0.06
C15A U28A | 0.1
C15A U28C | 0.12
C15G C18U | 0.04
C15G C18G | 0.05
C15G C18A | 0.09
A16C G33C | 0.05
A16C G33A | 0.07
A16C G33U | 0.05
C15U G19C | 1.39
C15U G19A | 0.98
C15U G19U | 0.87
C15A C42G | 0.04
C15A C42A | 0.06
C15A C42U | 0.05
C15G A25U | 0.04
C15G A25C | 0.02
C15G A25G | 0.06
A16C | 0.11
C15G U32A | 0.05
C15G U32G | 0.04
C15G U32C | 0.03
C15U G22A | 1.21

Variant | self-cleavage
C15U G22U | 0.78
C15U G22C | 0.53
C15A G17C | 0.04
C15A G17U | 0.09
C15A G17A | 0.14
C15U A25U | 0.77
C15U A25C | 1
C15U A25G | 0.17
C15U C31G | 0.06
C15U C31U | 0.09
C15U C31A | 0.06
C15A G40U | 0.06
C15A G40A | 0.04
C15A G40C | 0.07
A16C A24C | 0.07
A16C A24G | 0.04
A16C A24U | 0.11
C15U G33C | 0.09
C15U G33U | 0.37
A16C G22C | 0.09
A16C G22A | 0.1
A16C G22U | 0.1
C15U A24C | 0.25
C15U A24U | 0.32

Variant | self-cleavage
C15U A24G | 1.53
C15U G29C | 1.59
C15U G29U | 1.42
C15U G29A | 1.1
C15U U28A | 1.35
C15U U28C | 1.52
C15U U28G | 0.31
C15A G29U | 0.12
C15A G29C | 0.18
C15A G29A | 0.16
C15U G36A | 0.15
C15U G36U | 0.12
C15U G36C | 0.06
C15A G30C | 0.05
C15A G30U | 0.07
C15A G30A | 0.06
C15U C23U | 1.91
C15U C23A | 2.82
C15U C23G | 0.81
C15U C42A | 0.08
C15U C42G | 0.09
C15U C42U | 0.11
